In patent publication US11066655B2, “RNA polymerase, methods of purification and methods of use” (President and Fellows of Harvard College, priority 2013, dated 2021):

B1: Syn5 RNAP: single subunit DNA-dependent RNA polymerase from marine cyanophage Syn5, amino acid sequence SEQ ID NO:23 (protein)
chain: MSFDLIARQLQRETEAAELARKRLQDARREANERSYASSNIESRKAIATFLDPIAQRIGERLFTLRRGTGAVDAAEVYKHLKNADHHHLALITMKTALDVLGKDPEPQIQQLTTAIGRNIQLELRLTYYAEENPELYKQASRFFHAGTGTRQKATVIKLKFNREGIEWDQWSRVTCHKVGQWLMLAMADVTGWIERATDRTSGGRKTKTRICYSREFLQHRDTILAAAEQLAFCQWPMLCPPIEWSNDHNGGYLSEQIRRVNPLIRKTGPLGTRKQGDIPLAMLNNLQGQAYKVNPEVLDIANHCYESNVTVGKFIRHAPLPVPPSPGEDCTEDQLTAYKRARREAEDFNAQISQKNWRTTEVMYVARKYADEASFWMPASFDYRGRVYFLNTALNPQGTDFDKALLYFAEEGPVNEWWLSFHVATTYGLDKETMVNRVQWARDNHELIDRIASDPVRHTEWHDADEPWCFLAACLEYKACVIDGTKQTSGLPIGIDATCSGLQHLAAMTRCGRTAALVNVTPTDKPADAYKTVAQASLKHLPKEQHEWITRKVTKRPVMCTPYGVTMSSARGYIRDQLVKDGHKEDLRSPGVLNGIVKAIFNEAIPEVIPGPVQVMAWLKRSAGQIIDRGDSTITWTTPSGFEVVQDLKKSKTYEVKTRIMGGARIKLQVGDGFTDEPDRDHHKSALAPNVVHSNDASLLHLTFAFWDKPFTVIHDCVLGRSCDMDQMGSDIRLHFAEMYKADVMQDWADQVGVELPVDLIKNTLDIDSVNQSLYFFS
modifications: Amino acid sequence of a cyanophage Syn5 RNAP

Experiments:
Syn5 promoter = assay: Cross recognition of promoters, gel transcription assay; type: biochemical, cyanophage Syn5; conditions: for transcription from a Syn5 promoter: T7 DNA fragment with T7 promoter replaced by Syn5 promoter
Procedure: FIGS. 3A-3C depict characterization of the Syn5 promoter. A) Determination of the 3′-end of Syn5 promoter. 3′-dATP, 3′-dGTP, 3′-dUTP replaced ATP, GTP and UTP, respectively, as chain terminator to sequence the 5′-end of Syn5 RNAP transcript on a template same as template 1 in FIG. 2B. Once the 5′-terminus of the transcript was determined, the sequence preceding it should be the promoter and the 3′-end of the promoter can thus be defined. A 25% TBE-urea gel was used for this assay. B) Cross recognition between Syn5 and T7 transcription systems. Syn5 RNAP synthesizes runoff products on a fragment of T7 DNA provided the T7 promoter is replaced by a Syn5 promoter (lane a). Syn5 RNAP fails to produce transcripts if the first nucleotide downstream of the promoter is changed from G to T (lane b). […] T7 RNAP produces runoff and “N+1” products upon its own promoter (lane e). Sequences of templates can be found in Table 1. C) Schematic showing the identity of the two promoters based on the above data and previous bioinformatics analysis on the Syn5 and P-SSP7 genomes, respectively. Syn5 RNAP transcribes DNA fragments containing a Syn5 promoter to produce transcripts (>1500 for template 1, lane 1; and >200 nt for template 3, lane 3).
For the gel assay results shown in FIGS. 1, 2, 3, and 13, reaction mixtures (20 μl) contained 40 mM Tris-HCl (pH 7.9), 6 mM MgCl2, 2 mM spermidine, 10 mM DTT, 200 µM[…]P, GTP and UTP, 10 µM [[…]-^32P]CTP, 1.5 U/µl RNaseOUT™ recombinant ribonuclease inhibitor (Invitrogen), 100 nM Syn5 or T7 RNAP, and DNA templates as described in the figure legends (either 2 nM phage genomic DNA, 4 nM purified PCR products, or 1 µM synthetic dsDNA fragments). Reaction mixtures were incubated at 24° C. for 30 min. The reaction mixtures described in FIG. 6 contained 40 mM Tris-HCl (pH 8.0), 200 µM[…]P, GTP and UTP, 10 µM [[…]-^32P]CTP, 1.5 U/µl RNaseOUT™, 50 nM Syn5 RNAP, DNA templates, and various amounts of MgCl2, FeCl2, MnCl2 and KCl as described in the figure legends. […] After electrophoresis, gels were dried and analyzed using a Fuji BAS 1000 Bioimaging Analyzer.

pET24-S5RNAP DNA = assay: Catalytic efficiency at various ribonucleotide concentrations (filter-binding assay); type: biochemical; conditions: for kcat/KmGTP / Km / kcat: GTP varied; for Km / KmGTP (results obtained with UTP): other NTPs 1 mM; for Km: 24° C., 5 min, read-out: apparent Km for GTP; for Km / kcat: 160 mM KCl for Syn5 RNAP, omitted for T7 RNAP; for kcat/KmGTP (results obtained with UTP) / kcatGTP (results obtained with UTP) / KmGTP (results obtained with UTP): UTP varied; for kcatGTP (results obtained with UTP) / KmGTP (results obtained with UTP): FIG. 7C/7D
Procedure: FIGS. 7A-7D depict a comparison of transcription efficiency of Syn5 and T7 RNAP at various ribonucleotide concentrations. A) Incorporation of NMP by Syn5 RNAP at various GTP concentrations. B) Incorporation of NMP by T7 RNAP at various GTP concentrations. C) Incorporation of NMP by Syn5 RNAP at various UTP concentrations. D) Incorporation of NMP by T7 RNAP at various UTP concentrations. Varied ribonucleotide concentrations were 7.8, 15.6, 31.3, 62.5, 125, 250, 500, 1000 µM while other NTPs were all at 1 mM, RNAP and template were both 20 nM, and the reaction time was 5 min at 24° C. 160 mM KCl was added for Syn5 RNAP reactions.
For the assays described in FIG. 7, reaction mixtures contained 40 mM Tris-HCl (pH 8.0), 6 mM MgCl2, 2 mM spermidine, 10 mM DTT, 20 nM Syn5 or T7 RNAP, 20 nM pET24-S5RNAP DNA, 1 mM ^3H-ATP (20 cpm/pmole), CTP, UTP (or GTP), and varying amounts of GTP (or UTP). 160 mM KCl was added for the Syn5 RNAP reactions. After various times the reactions were stopped by the addition of 20 mM EDTA. 4 µl of the mixtures were then loaded onto Whatman DE81 filter paper disks and the disks were washed to remove the unincorporated ^3H-ATP. The amount of insoluble ^3H-AMP, corresponding to nucleotides incorporated into newly synthesized RNA, was measured using a scintillation counter. The data were analyzed using Prism software.

T7 promoter = assay: Cross recognition of promoters, gel transcription assay; type: biochemical, bacteriophage T7; conditions: T7 DNA fragment with T7 Φ1.1 B promoter
Procedure: FIGS. 3A-3C depict characterization of the Syn5 promoter. A) Determination of the 3′-end of Syn5 promoter. 3′-dATP, 3′-dGTP, 3′-dUTP replaced ATP, GTP and UTP, respectively, as chain terminator to sequence the 5′-end of Syn5 RNAP transcript on a template same as template 1 in FIG. 2B. Once the 5′-terminus of the transcript was determined, the sequence preceding it should be the promoter and the 3′-end of the promoter can thus be defined. A 25% TBE-urea gel was used for this assay. B) Cross recognition between Syn5 and T7 transcription systems. Syn5 RNAP synthesizes runoff products on a fragment of T7 DNA provided the T7 promoter is replaced by a Syn5 promoter (lane a). Syn5 RNAP fails to produce transcripts if the first nucleotide downstream of the promoter is changed from G to T (lane b). […]
For the gel assay results shown in FIGS. 1, 2, 3, and 13, reaction mixtures (20 μl) contained 40 mM Tris-HCl (pH 7.9), 6 mM MgCl2, 2 mM spermidine, 10 mM DTT, 200 µM[…]P, GTP and UTP, 10 µM [[…]-^32P]CTP, 1.5 U/µl RNaseOUT™ recombinant ribonuclease inhibitor (Invitrogen), 100 nM Syn5 or T7 RNAP, and DNA templates as described in the figure legends (either 2 nM phage genomic DNA, 4 nM purified PCR products, or 1 µM synthetic dsDNA fragments). […] After electrophoresis, gels were dried and analyzed using a Fuji BAS 1000 Bioimaging Analyzer.

| Molecule | transcription from a Syn5 promoter (Syn5 promoter) | kcat/KmGTP (pET24-S5RNAP DNA) | Km (pET24-S5RNAP DNA) | kcat (pET24-S5RNAP DNA) | kcat/KmGTP (results obtained with UTP) (pET24-S5RNAP DNA) | kcatGTP (results obtained with UTP) (pET24-S5RNAP DNA) | KmGTP (results obtained with UTP) (pET24-S5RNAP DNA) | transcription from a T7 promoter (T7 promoter) | first nucleotide after promoter changed from G to T (Syn5 promoter; FIG. 3B lane b) |
| --- | --- | --- | --- | --- | --- | --- | --- | --- | --- |
| T7 RNAP: RNA polymerase encoded by bacteriophage T7, from New England Biolabs [reference compound] | does not initiate transcription but does catalyze some non-specific RNA synthesis | 90000 M⁻¹ s⁻¹ | 45.8 ± 9 µM | 4.1 s⁻¹ | 290000 M⁻¹ s⁻¹ | 6.8 s⁻¹ | 23.3 ± 5.5 µM | initiates transcription and produces a runoff transcript |  |
| B1 | produce a run-off product of the expected size | 180000 M⁻¹ s⁻¹ | 13.9 ± 5.6 µM | 2.5 s⁻¹ | 380000 M⁻¹ s⁻¹ | 2.8 s⁻¹ | 7.4 ± 1.5 µM | does not recognize a T7 promoter | unable to incorporate UTP as the first ribonucleotide |
